Experiments:
[1] = Western densitometry, % in media, 48 h; conditions: control: wild type
[2] = secreted protein in media at 37 °C, Western; conditions: glycan lost; control: wild type
[3] = Western blot of conditioned media; conditions: control: untreated
[4] = AHA pulse-chase, intracellular protein; conditions: glycan lost; control: wild type
[5] = Western densitometry, % in media; conditions: glycan gained; control: wild type

Protein	expression_or_secretion, other: percent of total protein in media ([1]; glycan lost)	degradation_or_half_life, half_life [2]	other results
human Rspo2: N160Q (protein) parent chain: MQFRLFSFALIILNCMDYSHCQGNRWRRSKRASYVSNPICKGCLSCSKDNGCSRCQQKLFFFLRREGMRQYGECLHSCPSGYYGHRAPDMNRCARCRIENCDSCFSKDFCTKCKVGFYLHRGRCFDECPDGFAPLEETMECVEGCEVGHWSEWGTCSRNNRTCGFKWGLETRTRQIVKKPVKDTILCPTIAESRRCKMTMRHCPGGKRTPKAKEKRNKKKKRKLIERAQEQHSVFLATDRANQ	decreases, 18% vs 34%	decreases, 12 vs 36	–
human Rspo2: E136N (protein) parent chain: MQFRLFSFALIILNCMDYSHCQGNRWRRSKRASYVSNPICKGCLSCSKDNGCSRCQQKLFFFLRREGMRQYGECLHSCPSGYYGHRAPDMNRCARCRIENCDSCFSKDFCTKCKVGFYLHRGRCFDECPDGFAPLEETMECVEGCEVGHWSEWGTCSRNNRTCGFKWGLETRTRQIVKKPVKDTILCPTIAESRRCKMTMRHCPGGKRTPKAKEKRNKKKKRKLIERAQEQHSVFLATDRANQ	–	–	expression_or_secretion, other: percent of total protein in media ([1]; glycan gained): increases, two-fold vs 34%
human Rspo3: N137Q (protein) parent chain: MHLRLISWLFIILNFMEYIGSQNASRGRRQRRMHPNVSQGCQGGCATCSDYNGCLSCKPRLFFALERIGMKQIGVCLSSCPSGYYGTRYPDINKCTKCKADCDTCFNKNFCTKCKSGFYLHLGKCLDNCPEGLEANNHTMECVSIVHCEVSEWNPWSPCTKKGKTCGFKRGTETRVREIIQHPSAKGNLCPPTNETRKCTVQRKKCQKGERGKKGRERKRKKPNKGESKEAIPDSKSLESSKEIPEQRENKQQQKKRKVQDKQKSVSVSTVH	decreases, 44% vs 67%	no change, >48 vs >48	–
human Rspo3: tunicamycin (protein) parent chain: MHLRLISWLFIILNFMEYIGSQNASRGRRQRRMHPNVSQGCQGGCATCSDYNGCLSCKPRLFFALERIGMKQIGVCLSSCPSGYYGTRYPDINKCTKCKADCDTCFNKNFCTKCKSGFYLHLGKCLDNCPEGLEANNHTMECVSIVHCEVSEWNPWSPCTKKGKTCGFKRGTETRVREIIQHPSAKGNLCPPTNETRKCTVQRKKCQKGERGKKGRERKRKKPNKGESKEAIPDSKSLESSKEIPEQRENKQQQKKRKVQDKQKSVSVSTVH	–	–	expression_or_secretion ([3]; glycan lost): decreases
human Rspo1 (R-spondin 1): N137Q (protein) parent chain: MRLGLCVVALVLSWTHLTISSRGIKGKRQRRISAEGSQACAKGCELCSEVNGCLKCSPKLFILLERNDIRQVGVCLPSCPPGYFDARNPDMNKCIKCKIEHCEACFSHNFCTKCKEGLYLHKGRCYPACPEGSSAANGTMECSSPAQCEMSEWSPWGPCSKKQQLCGFRRGSEERTRRVLHAPVGDHAACSDTKETRRCTVRRVPCPEGQKRRKGGQGRRENANRNLARKESKEAGAGSRRRKGQQQQQQQGTVGPLTSAGPA	decreases, 32% vs 56%	no change, ~48 vs >48	degradation_or_half_life, half_life [4]: decreases, 0.6 vs 0.9
human Rspo1 (R-spondin 1): tunicamycin (protein) parent chain: MRLGLCVVALVLSWTHLTISSRGIKGKRQRRISAEGSQACAKGCELCSEVNGCLKCSPKLFILLERNDIRQVGVCLPSCPPGYFDARNPDMNKCIKCKIEHCEACFSHNFCTKCKEGLYLHKGRCYPACPEGSSAANGTMECSSPAQCEMSEWSPWGPCSKKQQLCGFRRGSEERTRRVLHAPVGDHAACSDTKETRRCTVRRVPCPEGQKRRKGGQGRRENANRNLARKESKEAGAGSRRRKGQQQQQQQGTVGPLTSAGPA	–	–	expression_or_secretion ([3]; glycan lost): decreases
human Rspo1 (R-spondin 1): castanospermine (protein) parent chain: MRLGLCVVALVLSWTHLTISSRGIKGKRQRRISAEGSQACAKGCELCSEVNGCLKCSPKLFILLERNDIRQVGVCLPSCPPGYFDARNPDMNKCIKCKIEHCEACFSHNFCTKCKEGLYLHKGRCYPACPEGSSAANGTMECSSPAQCEMSEWSPWGPCSKKQQLCGFRRGSEERTRRVLHAPVGDHAACSDTKETRRCTVRRVPCPEGQKRRKGGQGRRENANRNLARKESKEAGAGSRRRKGQQQQQQQGTVGPLTSAGPA	–	–	expression_or_secretion ([3]; glycan changed form): decreases
human Rspo1 (R-spondin 1): Q163N/L165T (protein) parent chain: MRLGLCVVALVLSWTHLTISSRGIKGKRQRRISAEGSQACAKGCELCSEVNGCLKCSPKLFILLERNDIRQVGVCLPSCPPGYFDARNPDMNKCIKCKIEHCEACFSHNFCTKCKEGLYLHKGRCYPACPEGSSAANGTMECSSPAQCEMSEWSPWGPCSKKQQLCGFRRGSEERTRRVLHAPVGDHAACSDTKETRRCTVRRVPCPEGQKRRKGGQGRRENANRNLARKESKEAGAGSRRRKGQQQQQQQGTVGPLTSAGPA	–	–	expression_or_secretion, fold_change [5]: increases
